US20110274702A1

Assays:
Assay in all cases: ELISA on coated HA
[1] = target: H7N3 A/Canada/444/04 HA protein (influenza A virus H7N3 A/Canada/444/04)
[2] = target: H8N4 A/Alberta/357/84 HA protein (influenza A virus H8N4 A/Alberta/357/84)
[3] = target: H3N2 A/Wyoming/3/03 HA protein (influenza A virus H3N2 A/Wyoming/3/03)
[4] = target: H5N1 A/Viet Nam/1/05 HA protein (influenza A virus H5N1 A/Viet Nam/1/05)
[5] = target: H6N5 A/shearwater/Australia/1/72 HA protein (influenza A virus H6N5 A/shearwater/Australia/1/72)
[6] = target: H7N7 A/Netherlands/219/03 HA protein (influenza A virus H7N7 A/Netherlands/219/03)
[7] = target: H4N6 A/duck/Czechoslovakia/56 HA protein (influenza A virus H4N6 A/duck/Czechoslovakia/56) (UniProt P19696)
[8] = target: H9N2 A/Hong Kong/1073/99 HA protein (influenza A virus H9N2 A/Hong Kong/1073/99)
[9] = target: H5N1 A/Viet Nam/1203/04 HA protein (influenza A virus H5N1 A/Viet Nam/1203/04)
[10] = target: H1N1 A/Brisbane/59/07 HA protein (influenza A virus H1N1 A/Brisbane/59/07)
[11] = target: H3N2 A/New York/55/04 HA protein (influenza A virus H3N2 A/New York/55/04)
[12] = target: H3N2 A/Brisbane/10/07 HA protein (influenza A virus H3N2 A/Brisbane/10/07)
[13] = target: H10N4 A/mink/Sweded/3900/84 HA protein (influenza A virus H10N4 A/mink/Sweded/3900/84)
[14] = target: B/Ohio/1/05 HA protein (influenza B virus B/Ohio/1/05)

Measured: EC50

ctr (antibody)
> 20 µg/mL: all assays above
